Results on two molecules are retold here after patent US20220047631A1.

One assay deals with Glycopeptide. The experiment in a line: surface plasmon resonance, Table S3 of Brooks et al. (2010) PNAS drawn on the sheet; per legend paragraph 58 measured for the 237 Fab [C]. (SPR reads the build-up and loss of mass on a sensor chip optically.)
For assay [1], the target named is Tn-glycosylated murine podoplanin on COSMC-mutant cells (murine) (UniProt Q62011). The experiment in a line: flow cytometry on Ag104A, Jurkat and SKOV3 variants; binding ratio = MFI primary+secondary / MFI secondary alone. (Flow cytometry measures light scatter and fluorescence of single cells or particles in a stream.)
Tn-glycosylated murine podoplanin on COSMC-mutant cells (murine), sequence (Q62011 23-172, change not shown): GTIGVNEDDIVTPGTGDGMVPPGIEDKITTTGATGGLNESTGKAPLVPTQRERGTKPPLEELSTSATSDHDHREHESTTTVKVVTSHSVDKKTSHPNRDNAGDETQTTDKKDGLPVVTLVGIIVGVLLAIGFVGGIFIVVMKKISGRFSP

B1: 237mAb Fab (Fab, V domains shown)
VH: QVQLQQSGGGLVQPGGSMKIFCAASGFTFSDAWMDWVRQSPEKGLEWVAEIRNKANNHETYYAESVKGRFTITRDDSKSRMSLQMNSLRAEDTGIYYCSGGKVRNAYWGQGTTVTVSS
VL: DIQLTQSPLSLPVSLGDQASISCRSSQSLVHSNGNTYLHWYLQKPGQSPKLLIYKVSNRFSGVPDRFSGSGSGTDFTLKISSVEAEDLGVYFCSQSTHVPTFGGGTKLEIK
In general, koff refers to the first-order rate constant of dissociation. Low readings indicate a long-lived complex, high ones a short-lived complex. One may read the kon as the second-order rate constant of association. In the assay with Glycopeptide, B1 came in with a koff of 0.013 s⁻¹ and a kon of 94000 M⁻¹ s⁻¹.

B2: 237 monoclonal antibody (antibody, V domains shown)
VH: QVQLQQSGGGLVQPGGSMKIFCAASGFTFSDAWMDWVRQSPEKGLEWVAEIRNKANNHETYYAESVKGRFTITRDDSKSRMSLQMNSLRAEDTGIYYCSGGKVRNAYWGQGTTVTVSS
VL: DIQLTQSPLSLPVSLGDQASISCRSSQSLVHSNGNTYLHWYLQKPGQSPKLLIYKVSNRFSGVPDRFSGSGSGTDFTLKISSVEAEDLGVYFCSQSTHVPTFGGGTKLEIK
Take B2: the fold of binding ratio over cells that were PDPN- and/or Cosmc+ in assay [1] was above 100 fold.
